Patent publication US20230340091A1 (MOR RESEARCH APPLICATIONS, published 2023)

Target: recombinant human alpha-synuclein preformed fibrils (PFF) (human, UniProt P37840 1-140)
Assay: ELISA on coated alpha-synuclein PFF, Fab in serial dilution
Protocol: A standard ELISA assay was performed using alpha-synuclein PFFs as the coating protein.

| binding result | Binder |
| --- | --- |
| no binding | PMS213 (Fab 6), Fab format (Fab, V domains shown, Fab expressed in E. coli with His and myc tags on the heavy chain) VH: QVQLVQSGPGLVKPSETLSLICTVSGGSISSSNYYWGWVRQPPGKGLEWIGTIYYSGTTYYNPSLKSRVTISVDTSKNQFSLELSSVTAADTAVYYCARLGRGSAFDIWGQGTMVTVSS VL: SVVTQPPSLSAAPGQSITISCSGGGSNIGRNSVSWHRQFPGAAPELLAFDTFRRPSGVPDRFSGSKSGSSATLVITGLQTGDEADYYCGTWDNSLDSGVFGGGTKVTVLR |
| no binding | PMS209 (Fab 2), Fab format (Fab, V domains shown) VH: QVQLQESGPGLVKPSETLSLTCTVSGGSISSSSYYWGWIRQPPGKGLEWIGSIYYSGSTYYNPSLKSRVTISVDTSKNQFSLKLSSVTAADTAVYYCARLRRYDSSGFFFDYWGQGTLVTVSS VL: SVVTQPPSVSAAPGQKVTISCSGSSSNIGNNYVSWHQQLPGTAPKLLIYDNDRRPSGIPDRFSGSKSGTSATLAITGLQTGDEADYYCGTWDSSLSGGVFGGGTKVTVLS |
